In assay [1] the target is T1, human PD-L2 (full length, on CHO cells) (human, UniProt Q9BQ51 20-273).
T1 construct: whole, on cells; also called CHO-PD-L2 cells
T1 sequence (looked up): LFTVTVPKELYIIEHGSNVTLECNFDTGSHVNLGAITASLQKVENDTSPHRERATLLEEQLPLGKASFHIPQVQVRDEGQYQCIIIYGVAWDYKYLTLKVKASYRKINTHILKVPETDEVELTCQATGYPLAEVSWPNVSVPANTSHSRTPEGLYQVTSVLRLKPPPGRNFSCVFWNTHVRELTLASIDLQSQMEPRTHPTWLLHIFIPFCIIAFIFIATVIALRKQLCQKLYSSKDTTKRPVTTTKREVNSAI
Briefly: flow cytometry on CHO cells expressing human PD-L2. The protocol:
(§1) Cells (3-5×10⁴ cells/well) were incubated in polystyrene 96-well round-bottom plates (Greiner bio-one, cat. no. 650101) with serial dilutions of antibodies (range 0.0001 to 10 μg/mL in 5-fold dilution steps) in 50 μL PBS/0.1% BSA/0.02% azide (staining buffer) at 4° C. for 30 min.
(§2) After washing twice in staining buffer, cells were incubated in 50 μL secondary antibody at 4° C. for 30 min. As a secondary antibody, R-Phycoerythrin (PE)-conjugated goat-anti-human IgG F(ab′)₂ (Cat. no. 109-116-098, Jackson ImmunoResearch Laboratories, Inc., West Grove, Pa.) diluted 1:500 in staining buffer, was used for all experiments. Next, cells were washed twice in staining buffer, re-suspended in 20 μL staining buffer and analyzed on an iQue screener (Intellicyt Corporation, USA). Binding curves were analyzed using non-linear regression (sigmoidal dose-response with variable slope) using GraphPad Prism V75.04 software (GraphPad Software, San Diego, Calif., USA).
A PE-conjugated PD-L2 specific antibody (Mylteni, clone MIH18; cat. no. 130-098-651) was used as positive control.

Assay [2] has as its target T2, human PD-L1 (full length, on cells) (human, UniProt Q9NZQ7 19-290).
T2 construct: The entry holds the signal peptide; also called CD274; B7H1
Briefly: flow cytometry on HELA cells, PE anti-human IgG secondary, MFI (PE). The protocol:
as §1, §2

Assay [3] has as its target T3, cynomolgus monkey PD-L1 (full length, on CHO cells) (cynomolgus monkey (Macaca fascicularis), UniProt G7PSE7 19-290).
T3 construct: whole, on cells; also called PDL1 Mf; cynomolgus PD-L1
The assay can be described thus: flow cytometry on CHO cells transfected with cynomolgus PD-L1, PE anti-human IgG secondary, MFI (PE). The protocol:
as §1, §2
Binding to CHO cells expressing cynomolgus PD-L1 was determined by flow cytometry using a method as described above.
For orientation: Flow cytometry measures light scatter and fluorescence of single cells or particles in a stream.

The target in assay [4] is T2, human PD-L1 (full length, on cells). The assay can be described thus: flow cytometry on MDA-MB-231 cells, PE anti-human IgG secondary, MFI (PE). The protocol:
as §1, §2

Assay [5] has the same target. Briefly: flow cytometry on PC3 cells, PE anti-human IgG secondary, MFI (PE). On the procedure:
as §1, §2

The target is the same in assay [6]. Briefly: flow cytometry on MDA-MB-231 cells, PE anti-human IgG secondary, MFI (PE). The protocol:
as §1, §2
This is another data set of the same source.

For assay [7] the target is unchanged. Briefly: flow cytometry on HEK293 cells expressing wild type or alanine-mutant PD-L1.
For assay [8], the target named is T4, PDLoneECDHisCtag (human, UniProt Q9NZQ7 19-238).
T4 construct: Expressed in HEK-293F cells; theoretical molecular weight 29 kDa; also called recombinant human PD-L1 ECD; human PD-L1 (BLI); not shown: C-terminal His-tag; C-tag
The assay can be described thus: BLI cross-block, second antibody on PDLoneECDHisCtag held by immobilised 547; plain = non-blocking. On the procedure:
(§3) Antibody cross-block testing was performed using biolayer interferometry (BLI) on an Octet HTX instrument (ForteBio). Antibodies (20 μg/ml in 10 mM sodium acetate buffer pH 6.0 (ForteBio)) were immobilized on Amine-Reactive 2nd Generation (AR2G) biosensors (ForteBio) according to the instructions of the manufacturer. After a baseline (50 s) in Sample Diluent (ForteBio), biosensors containing immobilized antibodies were loaded for 500 s with PDLoneECDHisCtag (100 nM or 2.7 μg/ml), after which the association response of a second antibody (10 μg/ml) was followed for 500 s. Biosensors were regenerated by using 3 times 5 s alternating exposures to 10 mM glycine pH 2.5 and Sample Diluent. The experiment was repeated with a new set of second antibodies starting from the baseline step. Each biosensor was used 6 times. The experiment was performed at 30° C. using a shaker speed of 1000 rpm. Data was analyzed using Data Analysis Software v9.0.0.12 (ForteBio). The Y-axis was aligned to the association step and Savitzky-Golay filtering was applied. The average buffer response was subtracted from the association response of the second antibody in order to correct for the dissociation of PDLoneECDHisCtag from the immobilized antibody. The corrected association responses were plotted in a matrix format.

Assay [9] concerns the target T4, PDLoneECDHisCtag. Briefly: BLI cross-block, second antibody on PDLoneECDHisCtag held by immobilised 421-LC91S; bold = blocking. The protocol: as §3
In assay [10] the target is T4, PDLoneECDHisCtag. Briefly: BLI cross-block, second antibody on PDLoneECDHisCtag held by immobilised MPDL; bold = blocking. The protocol:
as §3

In assay [11] the target is T4, PDLoneECDHisCtag. The assay can be described thus: BLI cross-block, second antibody on PDLoneECDHisCtag held by immobilised 476-N101Q-LC33S; plain = non-blocking. On the procedure: as §3
In assay [12] the target is T4, PDLoneECDHisCtag. The assay can be described thus: BLI cross-block, second antibody on PDLoneECDHisCtag held by immobilised 511-LC33S; plain = non-blocking. On the procedure: as §3
Assay [13] addresses T4, PDLoneECDHisCtag. Briefly: BLI cross-block, second antibody on PDLoneECDHisCtag held by immobilised 632; plain = non-blocking. On the procedure: as §3
Assay [14] addresses T4, PDLoneECDHisCtag. Briefly: BLI cross-block, second antibody on PDLoneECDHisCtag held by immobilised 516; bold = blocking. The protocol: as §3

This note sets out measurements from US20200239579A1 (Genmab, published 2020).

T2 sequence (Q9NZQ7 19-290 limits assumed): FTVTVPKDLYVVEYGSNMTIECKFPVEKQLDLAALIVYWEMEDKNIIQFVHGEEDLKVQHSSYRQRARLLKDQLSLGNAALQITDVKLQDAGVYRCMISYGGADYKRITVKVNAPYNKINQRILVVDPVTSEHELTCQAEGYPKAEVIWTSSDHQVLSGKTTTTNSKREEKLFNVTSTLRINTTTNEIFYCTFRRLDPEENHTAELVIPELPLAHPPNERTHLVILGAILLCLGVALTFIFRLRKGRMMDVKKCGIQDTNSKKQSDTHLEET
T4 sequence (Q9NZQ7 19-238, form in doubt): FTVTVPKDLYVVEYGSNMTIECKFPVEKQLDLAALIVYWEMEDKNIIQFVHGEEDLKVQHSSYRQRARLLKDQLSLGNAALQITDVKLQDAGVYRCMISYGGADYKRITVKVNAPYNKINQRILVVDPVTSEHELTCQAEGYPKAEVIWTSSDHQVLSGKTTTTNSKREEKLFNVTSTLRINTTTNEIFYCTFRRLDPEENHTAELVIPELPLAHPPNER
T3 sequence (G7PSE7 entry or part of it): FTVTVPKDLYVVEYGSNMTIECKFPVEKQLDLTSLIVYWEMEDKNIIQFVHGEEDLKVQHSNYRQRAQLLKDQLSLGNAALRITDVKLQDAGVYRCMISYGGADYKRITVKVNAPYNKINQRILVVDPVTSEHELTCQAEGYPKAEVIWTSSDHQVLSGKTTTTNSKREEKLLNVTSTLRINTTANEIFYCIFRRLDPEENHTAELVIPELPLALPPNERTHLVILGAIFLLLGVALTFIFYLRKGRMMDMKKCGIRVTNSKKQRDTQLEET

B1: bsIgG1-huCD3-H1L1-FEAL×547-FEAR (bispecific antibody)
heavy 1: not shown
VL: not shown
heavy 2: EVQLLEPGGGLVQPGGSLRLSCEASGSTFSTYAMSWVRQAPGKGLEWVSGFSGSGGFTFYADSVRGRFTISRDSSKNTLFLQMSSLRAEDTAVYYCAIPARGYNYGSFQHWGQGTLVTVSSASTKGPSVFPLAPSSKSTSGGTAALGCLVKDYFPEPVTVSWNSGALTSGVHTFPAVLQSSGLYSLSSVVTVPSSSLGTQTYICNVNHKPSNTKVDKRVEPKSCDKTHTCPPCPAPEFEGGPSVFLFPPKPKDTLMISRTPEVTCVVVAVSHEDPEVKFNWYVDGVEVHNAKTKPREEQYNSTYRVVSVLTVLHQDWLNGKEYKCKVSNKALPAPIEKTISKAKGQPREPQVYTLPPSREEMTKNQVSLTCLVKGFYPSDIAVEWESNGQPENNYKTTPPVLDSDGSFFLYSRLTVDKSRWQQGNVFSCSVMHEALHNHYTQKSLSLSPGK
light: SYVLTQPPSVSVAPGQTARITCGGNNIGSKSVHWYQQKPGQAPVLVVYDDNDRPSGLPERFSGSNSGNTATLTISRVEAGDEADYYCQVWDSSSDHVVFGGGTKLTVLGQPKAAPSVTLFPPSSEELQANKATLVCLISDFYPGAVTVAWKADSSPVKAGVETTTPSKQSNNKYAASSYLSLTPEQWKSHRSYSCQVTHEGSTVEKTVAPTECS
As usually defined, the EC50 (read off the curve) is the concentration at which the effect is half-maximal. Regarding B1, the binding result in [1] is on record as “no binding”. Besides, the “EC50 (read off the curve)” value in [2] was about 0.02 µg/mL; in assay [3] it was about 0.06 µg/mL; in assay [4], about 0.08 µg/mL; in [5] it was about 0.03 µg/mL.

B2: bsIgG1-huCD3-H1L1-FEAL×338-FEAR (bispecific antibody)
heavy 1: not shown
VL: not shown
heavy 2: EVQVVESGGGLVQPGGSLRLSCAASGFTFSRFWMSWVRQAPGKGLEWVANIKQDGGEKYYVDSVKGRFTISRDNAKNSLYLQMNSLRGEDTAVYYCARDDNWNGHFDYWGQGTLVTVSSASTKGPSVFPLAPSSKSTSGGTAALGCLVKDYFPEPVTVSWNSGALTSGVHTFPAVLQSSGLYSLSSVVTVPSSSLGTQTYICNVNHKPSNTKVDKRVEPKSCDKTHTCPPCPAPEFEGGPSVFLFPPKPKDTLMISRTPEVTCVVVAVSHEDPEVKFNWYVDGVEVHNAKTKPREEQYNSTYRVVSVLTVLHQDWLNGKEYKCKVSNKALPAPIEKTISKAKGQPREPQVYTLPPSREEMTKNQVSLTCLVKGFYPSDIAVEWESNGQPENNYKTTPPVLDSDGSFFLYSRLTVDKSRWQQGNVFSCSVMHEALHNHYTQKSLSLSPGK
light: DIQMTQSPSTLSASVGDRVTITCRASQSISSWLAWYQQKPGKAPNLLIYKASSLESGVPSRFSGSGSGTEFTLTISSLQPDDFATYYCQQYYGSYITFGQGTRLEIKRTVAAPSVFIFPPSDEQLKSGTASVVCLLNNFYPREAKVQWKVDNALQSGNSQESVTEQDSKDSTYSLSSTLTLSKADYEKHKVYACEVTHQGLSSPVTKSFNRGEC
For the molecule B2, the binding result in assay [1] was “no binding”. For the same molecule, the “EC50 (read off the curve)” value in assay [2] was about 0.02 µg/mL; in [3], about 0.09 µg/mL; in [6], about 0.1 µg/mL; in assay [5] it was about 0.03 µg/mL.

B3: IgG1-625-FEAR-A488 (antibody, V domains shown)
VH: HMQLVESGGGVAQPGRSLRLSCAASGFTFSNYGMHWVRQAPGRGLEWLAVMSYDGETKYYADSVKGRFTISRDNSENTLFLQMNSLRAEDTAVYYCAKDTSNGWNYYFYGMDVWGQGTTVTVSS
VL: SYELTQPPSVSVSPGQTARITCSGDALPKKFASWYQQKSGQAPVLVIYEDSKRPSGIPERVSGSSSGTMATLTISGAQTEDEADYYCYSTDRSGYHWVFGGGTKLTVL
notes: also called control antibody of the alanine scan
B3: in [7], the binding result is on record as “binds”.

B4: IgG1-516-FEAR (antibody, V domains shown)
VH: QVQLQESGPGLVKPSDTLSLTCAVSDYSISSNDWWGWIRQPPGKGLEWIGYIYYSGTGYYNPSLKSRVTISIDTSKNQFSLKLNSVTAVDTAVYYCARTRVGARRAFDYWGQGTLVTVSS
VL: SYVLTQPPSVSVAPGQTARITCGGNNIGSKSVHWYQQKPGQAPVLVVYDDSDRPSGIPERFSGSNSGNTATLTISRVEAGDEADYYCQVWDSSSDHVVFGGGTKLTVL
With B4, the “association response of the second antibody” value with PDLoneECDHisCtag [8] was 0.7 nm; with PDLoneECDHisCtag [9], 0 nm; with PDLoneECDHisCtag [10], 0 nm; in the assay with PDLoneECDHisCtag [11] it was 0.7 nm; in the assay with PDLoneECDHisCtag [12], 0.6 nm; with PDLoneECDHisCtag [13], 0.6 nm. Moreover, the “association response of the second antibody” value in the assay with PDLoneECDHisCtag [14] was 0 nm.
